Our source for the binding result and Kd values is US20190218277A1 (Chugai, published 2019).

The target in assay [1] is T1, Recombinant soluble E protein (0.8E-His) from DENV-2 (DENV-2, UniProt P14340 281-675).
T1 construct: also called DENV-2 E protein; DV2
As to the kind of experiment: SPR, Biacore T200.

The target of assay [2] is T2, Recombinant soluble E protein (0.8E-His) from DENV-4 (DENV-4, UniProt P09866 280-674).
T2 construct: also called DENV-4 E protein; DV4
As to the kind of experiment: SPR, Biacore T200. On the technique in general: SPR reads the build-up and loss of mass on a sensor chip optically.

The target in assay [3] is T3, Recombinant soluble E protein (0.8E-His) from DENV-3 (DENV-3, UniProt P27915 281-673).
T3 construct: also called DENV-3 E protein; DV3

Assay [4] has as its target T4, Recombinant soluble E protein (0.8E-His) from DENV-1 (DENV-1, UniProt P27909 281-675).
T4 construct: also called DENV-1 E protein; DV1

Assay [5] has as its target T4, Recombinant soluble E protein …. The source holds these as a separate data set.
For assay [6], the target named is T3, Recombinant soluble E protein …. This is another data set of the same source.
The target of assay [7] is T2, Recombinant soluble E protein ….
Assay [8] addresses T1, Recombinant soluble E protein ….
Another assay has as its target T5, human FcγRIa (human, UniProt P12314 16-292).
T5 construct: also called human FcγR1a
As to the kind of experiment: SPR (Biacore T200, pH 7.4, 25 °C): His-tagged FcγR captured by anti-His antibody; antibody injected at 100 nM alone (Ab alone) or as 1:1 complex with trimeric CD154 (CD154 IC); binding level / capture level [A].

For a further assay, the target named is T6, human FcγRIIb (human, UniProt P31994 43-217).
T6 construct: also called human FcγR2b
T6 sequence: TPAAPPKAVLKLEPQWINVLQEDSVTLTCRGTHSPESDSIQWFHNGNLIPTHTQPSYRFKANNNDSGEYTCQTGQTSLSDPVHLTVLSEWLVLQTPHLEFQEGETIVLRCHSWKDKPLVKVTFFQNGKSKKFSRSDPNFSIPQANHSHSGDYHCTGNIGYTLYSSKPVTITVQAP
As to the kind of experiment: SPR (Biacore T200, pH 7.4, 25 °C): His-tagged FcγR captured by anti-His antibody; antibody injected at 100 nM alone (Ab alone) or as 1:1 complex with trimeric CD154 (CD154 IC); binding level / capture level [D].

Another assay deals with T7, human FcγRIIIa (158V) (human, UniProt P08637 17-208).
T7 construct: also called human FcγR3a allelic variant 158V
Put plainly: SPR (Biacore T200, pH 7.4, 25 °C): His-tagged FcγR captured by anti-His antibody; antibody injected at 100 nM alone (Ab alone) or as 1:1 complex with trimeric CD154 (CD154 IC); binding level / capture level [F].

The next assay has as its target T8, human FcγRIIIb (NA1) (human, UniProt O75015 17-200).
T8 construct: also called human FcγR3b allelic variant NA1
T8 chain: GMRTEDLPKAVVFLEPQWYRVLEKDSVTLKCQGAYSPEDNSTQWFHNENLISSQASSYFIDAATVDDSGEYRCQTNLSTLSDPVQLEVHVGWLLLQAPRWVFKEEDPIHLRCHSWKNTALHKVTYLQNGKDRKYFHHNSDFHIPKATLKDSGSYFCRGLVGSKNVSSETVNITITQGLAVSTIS
As to the kind of experiment: SPR (Biacore T200, pH 7.4, 25 °C): His-tagged FcγR captured by anti-His antibody; antibody injected at 100 nM alone (Ab alone) or as 1:1 complex with trimeric CD154 (CD154 IC); binding level / capture level [G].

A further assay deals with T9, mouse FcγRI (mouse, UniProt P26151 25-297).
T9 construct: also called mFcγRI; mouse FcγR1
T9 sequence: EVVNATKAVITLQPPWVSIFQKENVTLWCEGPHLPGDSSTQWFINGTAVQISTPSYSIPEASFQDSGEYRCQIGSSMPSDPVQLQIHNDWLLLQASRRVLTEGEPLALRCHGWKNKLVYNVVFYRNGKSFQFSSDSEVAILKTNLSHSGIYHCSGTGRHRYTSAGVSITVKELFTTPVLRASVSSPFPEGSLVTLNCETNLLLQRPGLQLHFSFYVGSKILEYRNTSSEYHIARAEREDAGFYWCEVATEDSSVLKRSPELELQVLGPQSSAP
Put plainly: SPR (Biacore T200, pH 7.4, 25 °C): His-tagged FcγR captured by anti-His antibody; antibody injected at 100 nM alone (Ab alone) or as 1:1 complex with trimeric CD154 (CD154 IC); binding level / capture level [A].

The target in the next assay is T10, mouse FcγRIII (mouse, UniProt P08508 31-215).
T10 construct: also called mFcγRIII; mouse FcγR3
T10 chain: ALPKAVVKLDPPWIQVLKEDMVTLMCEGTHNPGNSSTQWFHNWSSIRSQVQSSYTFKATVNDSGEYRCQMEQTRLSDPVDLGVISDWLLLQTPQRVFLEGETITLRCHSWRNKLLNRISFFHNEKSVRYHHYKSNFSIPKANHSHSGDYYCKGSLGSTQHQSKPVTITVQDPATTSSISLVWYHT
Put plainly: SPR (Biacore T200, pH 7.4, 25 °C): His-tagged FcγR captured by anti-His antibody; antibody injected at 100 nM alone (Ab alone) or as 1:1 complex with trimeric CD154 (CD154 IC); binding level / capture level [C].

In another assay the target is T11, mouse FcγRIV (mouse, UniProt A0A0B4J1G0 21-203).
T11 construct: also called mFcγRIV; mouse FcγR4
T11 sequence: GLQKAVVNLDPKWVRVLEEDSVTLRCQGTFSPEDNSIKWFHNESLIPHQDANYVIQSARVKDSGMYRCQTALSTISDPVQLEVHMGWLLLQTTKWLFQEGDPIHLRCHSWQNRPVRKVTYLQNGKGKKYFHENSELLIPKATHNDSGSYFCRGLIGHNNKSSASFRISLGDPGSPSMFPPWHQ
As to the kind of experiment: SPR (Biacore T200, pH 7.4, 25 °C): His-tagged FcγR captured by anti-His antibody; antibody injected at 100 nM alone (Ab alone) or as 1:1 complex with trimeric CD154 (CD154 IC); binding level / capture level [D].

Read-outs that look alike come from different tables or passages of the source.

T5 sequence (P12314 16-292 limits assumed): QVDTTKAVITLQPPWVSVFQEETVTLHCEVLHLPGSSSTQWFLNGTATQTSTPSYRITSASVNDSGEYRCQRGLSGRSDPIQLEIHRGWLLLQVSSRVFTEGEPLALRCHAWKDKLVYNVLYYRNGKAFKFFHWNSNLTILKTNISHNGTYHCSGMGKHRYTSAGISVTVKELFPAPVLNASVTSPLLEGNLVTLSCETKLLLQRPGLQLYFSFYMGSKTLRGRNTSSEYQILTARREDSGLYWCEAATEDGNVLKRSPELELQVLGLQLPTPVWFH

B1: DG_3CH1000-SG1106/3CL-SK1 (antibody)
heavy: QVQLVQSGPDVEKPGASVKVSCKASGYTFTSYYMHWVRQAPGQGLEWMGVINPRGGSRRSAQKFQGRITMTRDTSTSTVYMELSSLRSEDTAVYYCARGGRALFYDSYTTPFDGGSWWFDPWGQGSLVTVSSASTKGPSVFPLAPSSKSTSGGTAALGCLVKDYFPEPVTVSWNSGALTSGVHTFPAVLQSSGLYSLSSVVTVPSSSLGTQTYICNVNHKPSNTKVDKRVEPKSCDKTHTCPPCPAPEAAGGPSVFLFPPKPKDTLMISRTPEVTCVVVDVSHEDPEVKFNWYVDGVEVHNAKTKPREEQYNSTYRVVSVLTVLHQDWLNGKEYKCKVSNAALPAPISKTISKAKGQPREPQVYTLPPSREEMTKNQVSLTCLVKGFYPSDIAVEWESNGQPENNYKTTPPVLDSDGSFFLYSKLTVDKSRWQQGNVFSCSVLHEALHAHYTRKELSLSP
light: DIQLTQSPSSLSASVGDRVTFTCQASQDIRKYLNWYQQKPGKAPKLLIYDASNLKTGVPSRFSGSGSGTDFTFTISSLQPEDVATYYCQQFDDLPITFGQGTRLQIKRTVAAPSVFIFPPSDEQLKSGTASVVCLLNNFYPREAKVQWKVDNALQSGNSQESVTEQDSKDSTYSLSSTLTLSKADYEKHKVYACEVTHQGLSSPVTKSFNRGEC
On to B1, for which the binding result in assay [1] and in [2] was “binds” throughout. The Kd (in general, the equilibrium constant for the complex coming apart) in [3] was found to be 0.299 pM; in [4], 1.84 nM.

B2: DG_3CH953-SG1106/3CL012-SK1 (antibody)
heavy: QVQLVQSGPDVEKPGASVKVSCKASGYTFTSNYIHWVRQAPGQGLEWMGVINPRGGSRRSAQKFQGRITMTRDTSTSTVYMELSSLRSEDTAVYYCARGGRALFYDSYTTPFDGGSWWFDPWGQGSLVTVSSASTKGPSVFPLAPSSKSTSGGTAALGCLVKDYFPEPVTVSWNSGALTSGVHTFPAVLQSSGLYSLSSVVTVPSSSLGTQTYICNVNHKPSNTKVDKRVEPKSCDKTHTCPPCPAPEAAGGPSVFLFPPKPKDTLMISRTPEVTCVVVDVSHEDPEVKFNWYVDGVEVHNAKTKPREEQYNSTYRVVSVLTVLHQDWLNGKEYKCKVSNAALPAPISKTISKAKGQPREPQVYTLPPSREEMTKNQVSLTCLVKGFYPSDIAVEWESNGQPENNYKTTPPVLDSDGSFFLYSKLTVDKSRWQQGNVFSCSVLHEALHAHYTRKELSLSP
light: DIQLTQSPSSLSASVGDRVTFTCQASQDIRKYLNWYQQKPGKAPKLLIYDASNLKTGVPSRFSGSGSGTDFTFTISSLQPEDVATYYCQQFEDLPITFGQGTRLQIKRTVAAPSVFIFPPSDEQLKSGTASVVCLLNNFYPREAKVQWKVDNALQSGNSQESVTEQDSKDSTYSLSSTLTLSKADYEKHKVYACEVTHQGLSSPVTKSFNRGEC
As to B2, the binding result in assay [1] and in assay [2] was “binds” each time. Further, the Kd was 10.6 pM in [3] and 1.89 nM in assay [4].

B3: DG_3CH-SG182/3CL-SK1 (antibody, human IgG1, kappa, V domains shown)
VH: QVQLVQSGPDVEKPGASVKVSCKASGYTFTSNYIHWVRQAPGQGLEWMGVINPRGGSTASAQKFQGRITMTRDTSTSTVYMELSSLRSDDTAVYYCARGGRALFYDSYTTPRDGGSWWFDPWGQGSLVTVSS
VL: DIQLTQSPSSLSASVGDRVTFTCQASQDIRKYLNWYQQKPGKAPKLLIYDASNLKTGVPSRFSGSGSGTDFTFTISSLQPEDVATYYCQQFDDLPITFGQGTRLQIKR
Regarding B3, the Kd in assay [5] turned out to be 32.1 nM; in assay [6] it was 6.07 nM; in assay [7], 16.9 nM; in [4], 22.5 nM.

B4: DG_3CH953-SG182/3CL499-SK1 (antibody, V domains shown)
VH: QVQLVQSGPDVEKPGASVKVSCKASGYTFTSNYIHWVRQAPGQGLEWMGVINPRGGSRRSAQKFQGRITMTRDTSTSTVYMELSSLRSEDTAVYYCARGGRALFYDSYTTPFDGGSWWFDPWGQGSLVTVSS
VL: DIQLTQSPSSLSASVGDRVTFTCQASQDIRKYLNWYQQKPGKAPKLLIYDASNLKFGVPSRFSGSGSGTDFTFTISSLQPEDVATYYCQQFDALPITFGQGTRLQIKR
With B4, the Kd in assay [5] is 1.46 nM; in assay [8], 0.905 nM; in [6], 0.211 nM; in assay [7], 5.99 nM.

B5: DG_3CH954-SG182/3CL-SK1 (antibody, V domains shown)
VH: QVQLVQSGPDVEKPGASVKVSCKASGYTFTSNYIHWVRQAPGQGLEWMGVINPRGGSRRSAQKFQGRITMTRDTSTSTVYMELSSLRSEDTAVYYCARGGRALFYDSYTTPRDDGSWWFDPWGQGSLVTVSS
VL: DIQLTQSPSSLSASVGDRVTFTCQASQDIRKYLNWYQQKPGKAPKLLIYDASNLKTGVPSRFSGSGSGTDFTFTISSLQPEDVATYYCQQFDDLPITFGQGTRLQIKR
Take B5: the Kd turned out to be 0.887 nM in assay [5], 0.122 nM in assay [8], 0.124 nM in assay [6] and 4.35 nM in assay [7].

B6: DG_3CH955-SG182/3CL-SK1 (antibody, V domains shown)
VH: QVQLVQSGPDVEKPGASVKVSCKASGYTFTSNYIHWVRQAPGQGLEWMGVINPRGGSRRSAQKFQGRITMTRDTSTSTVYMELSSLRSEDTAVYYCARGGRALFYDSYTTPRDLGSWWFDPWGQGSLVTVSS
VL: DIQLTQSPSSLSASVGDRVTFTCQASQDIRKYLNWYQQKPGKAPKLLIYDASNLKTGVPSRFSGSGSGTDFTFTISSLQPEDVATYYCQQFDDLPITFGQGTRLQIKR
On to B6, for which the Kd in assay [5] came out at 1.13 nM; in [8], 0.794 nM; in [6] it was 0.205 nM; in assay [7] it was 7.8 nM.

B7: EFT (antibody, human IgG1, kappa)
heavy chain: EVQLVESGGGSVKPGGSLKLSCAASGFTFSDHYMYWVRQTPEKRLEWVAIISGGGSYTSYPDSMKGRFTISRDNAKNILHLQMSSLKSEDTAMYYCTRESNGKPGFAYWGQGTLVTVSAASTKGPSVFPLAPSSKSTSGGTAALGCLVKDYFPEPVTVSWNSGALTSGVHTFPAVLQSSGLYSLSSVVTVPSSSLGTQTYICNVNHKPSNTKVDKRVEPKSCDKTHTCPPCPAPELLGGPSVFLFPPKPKDTLMISRTPEVTCVVVDVEFEDPEVKFNWYVDGVEVHNAKTKPREEQYNSTYRVVSVLTVLHQDWLNGKEYKCKVTNKALPAPIEKTISKAKGQPREPQVYTLPPSREEMTKNQVSLTCLVKGFYPSDIAVEWESNGQPENNYKTTPPVLDSDGSFFLYSKLTVDKSRWQQGNVFSCSVMHEALHNHYTQKSLSLSP
light chain: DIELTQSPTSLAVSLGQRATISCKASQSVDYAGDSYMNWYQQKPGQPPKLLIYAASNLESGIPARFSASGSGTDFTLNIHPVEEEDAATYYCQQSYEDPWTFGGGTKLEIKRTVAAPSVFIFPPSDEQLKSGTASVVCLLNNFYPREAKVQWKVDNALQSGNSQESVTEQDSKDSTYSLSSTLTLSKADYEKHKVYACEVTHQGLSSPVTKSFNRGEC
notes: also called Anti-CD154 antibody (SLAPH0336a/SLAPL0336a) with Fc variant EFT (SG1087); SG1087
Turning to B7, the binding result with human FcγRIa is listed as “binds”; with human FcγRIIb, “binds”; in the assay with human FcγRIIIa (158V), “binds”; with human FcγRIIIb (NA1), “no binding (tested: 100 nM)”; in the assay with mouse FcγRI, “binds”; with mouse FcγRIII it was “binds”. In the assay with mouse FcγRIV, the binding result was “binds”.
